Measured values as given in article PMC5645763.

Tests used:
[1] = target: SdKefQCTD (KTN-containing carboxy-terminal domain construct of the Shewanella denitrificans Kef potassium efflux system) (Shewanella denitrificans); assay: AUC; analytical ultracentrifugation (Figure S3); in solution, at the concentrations used (not given)
[2] = target: SdKefQCTD (KTN-containing carboxy-terminal domain construct of the Shewanella denitrificans Kef potassium efflux system) (Shewanella denitrificans); assay: SEC; gel filtration (Figure S1); in solution, at the concentrations used (not given)
[3] = target: SdKefQCTD (KTN-containing carboxy-terminal domain construct of the Shewanella denitrificans Kef potassium efflux system) (Shewanella denitrificans); assay: native MS; nanoelectrospray on a QToF-2, 200 mM ammonium acetate, 7.5 uM with respect to the dimer, positive polarity; collisional activation to remove AMP
[4] = target: SdKefQCTD (KTN-containing carboxy-terminal domain construct of the Shewanella denitrificans Kef potassium efflux system) (Shewanella denitrificans); assay: SEC-MALS; size-exclusion chromatography-multiangle laser scattering (Figure S2); in solution, at the concentrations used (not given)

Measured: stoichiometry N

SdKefQCTD (KTN-containing carboxy-terminal domain construct of the Shewanella denitrificans Kef potassium efflux system) (domain or fragment)
2: [1] | [2] | [3] | [4]
